{"source": "paper PMC5626764", "molecular_target": "SHG-labeled wildtype NiV G ectodomain (Nipah virus) (UniProt Q9IH62)", "assay": "second harmonic generation (SHG)"}
{"substance": "ephrinB2-229 (10881-HCCH, SinoBiological Inc.) (domain or fragment)", "values": [{"measurement": "ΔSHG", "value": -15.9, "unit": "%"}]}
